What was measured:
Assay in all cases: cell-based or functional assay
[1] = target: Tau seeds: sonicated human insoluble Tau from patients with Alzheimer's disease (AD-PHF, fraction 8) (human) (UniProt P10636)
[2] = target: Tau seeds: sonicated human insoluble Tau from patients with frontotemporal dementia (FTD-PHF) (human) (UniProt P10636)
[3] = target: Tau seeds: sonicated human insoluble Tau from patients with progressive supranuclear palsy (PSP-PHF, fraction 8) (human) (UniProt P10636)
[4] = target: Tau seeds: brain fraction from transgenic mice expressing human Tau P301S (human) (UniProt P10636)
Tau seeds: brain fraction from transgenic mice expressing human Tau P301S (human), sequence (P10636 other isoform, or with tags, fused parts or gaps P301S P301S): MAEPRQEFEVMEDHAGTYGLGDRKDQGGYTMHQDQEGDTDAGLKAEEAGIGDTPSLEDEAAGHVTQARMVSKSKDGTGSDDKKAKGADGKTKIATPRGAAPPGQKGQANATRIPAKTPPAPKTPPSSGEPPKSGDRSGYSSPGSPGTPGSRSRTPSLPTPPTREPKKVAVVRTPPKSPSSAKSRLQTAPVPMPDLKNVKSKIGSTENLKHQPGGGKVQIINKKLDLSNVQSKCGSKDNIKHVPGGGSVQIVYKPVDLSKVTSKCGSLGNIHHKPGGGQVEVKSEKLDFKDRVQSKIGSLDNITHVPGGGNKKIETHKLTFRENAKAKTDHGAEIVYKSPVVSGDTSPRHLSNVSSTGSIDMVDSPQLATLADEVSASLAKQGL

[5] = target: Tau seeds: brain fraction from transgenic mice expressing human Tau P301L (human) (UniProt P10636)
Tau seeds: brain fraction from transgenic mice expressing human Tau P301L (human), sequence (P10636 other isoform, or with tags, fused parts or gaps P301L P301L limits assumed): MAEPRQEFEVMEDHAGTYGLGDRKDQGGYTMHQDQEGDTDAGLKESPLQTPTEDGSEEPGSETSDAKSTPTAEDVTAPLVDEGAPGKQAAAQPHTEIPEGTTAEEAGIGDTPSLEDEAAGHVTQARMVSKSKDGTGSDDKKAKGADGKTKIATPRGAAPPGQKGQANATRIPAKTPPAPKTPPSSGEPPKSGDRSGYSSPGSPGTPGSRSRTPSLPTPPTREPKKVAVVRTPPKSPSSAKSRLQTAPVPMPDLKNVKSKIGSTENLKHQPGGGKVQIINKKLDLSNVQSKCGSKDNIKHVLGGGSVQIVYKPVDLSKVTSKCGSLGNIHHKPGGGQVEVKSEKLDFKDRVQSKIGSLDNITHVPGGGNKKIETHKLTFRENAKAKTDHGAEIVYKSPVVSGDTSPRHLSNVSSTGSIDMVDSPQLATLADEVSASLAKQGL

HJ8.5 of WO 2014/008404 (antibody), sequence (VH): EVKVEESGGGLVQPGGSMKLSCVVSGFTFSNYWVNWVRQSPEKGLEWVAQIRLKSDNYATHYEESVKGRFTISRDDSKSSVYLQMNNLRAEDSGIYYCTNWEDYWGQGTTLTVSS
HJ8.5 of WO 2014/008404 (antibody), sequence (VL): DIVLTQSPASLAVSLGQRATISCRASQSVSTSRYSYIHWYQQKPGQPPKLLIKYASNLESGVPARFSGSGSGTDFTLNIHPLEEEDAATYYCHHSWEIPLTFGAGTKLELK
Tau seeds: sonicated human insoluble Tau from patients with progressive supranuclear palsy (PSP-PHF, fraction 8) (human), sequence (P10636 other isoform, or with tags, fused parts or gaps limits assumed): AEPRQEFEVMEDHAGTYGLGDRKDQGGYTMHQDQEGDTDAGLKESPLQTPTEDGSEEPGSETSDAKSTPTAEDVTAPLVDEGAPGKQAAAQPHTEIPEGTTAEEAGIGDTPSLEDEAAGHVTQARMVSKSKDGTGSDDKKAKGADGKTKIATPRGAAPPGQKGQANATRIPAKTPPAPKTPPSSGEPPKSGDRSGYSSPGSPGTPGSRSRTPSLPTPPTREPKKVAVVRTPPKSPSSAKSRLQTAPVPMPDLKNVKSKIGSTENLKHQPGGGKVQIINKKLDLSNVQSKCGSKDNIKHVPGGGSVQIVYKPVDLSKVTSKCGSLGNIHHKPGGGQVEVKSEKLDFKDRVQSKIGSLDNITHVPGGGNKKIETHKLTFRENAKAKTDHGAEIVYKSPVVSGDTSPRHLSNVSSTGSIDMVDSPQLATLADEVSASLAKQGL
Tau seeds: sonicated human insoluble Tau from patients with Alzheimer's disease (AD-PHF, fraction 8) (human), sequence (P10636 other isoform, or with tags, fused parts or gaps limits assumed): as above
Tau seeds: sonicated human insoluble Tau from patients with frontotemporal dementia (FTD-PHF) (human), sequence (P10636 other isoform, or with tags, fused parts or gaps limits assumed): as above
IPN002 of WO2014/028777A2 (antibody), sequence (VH): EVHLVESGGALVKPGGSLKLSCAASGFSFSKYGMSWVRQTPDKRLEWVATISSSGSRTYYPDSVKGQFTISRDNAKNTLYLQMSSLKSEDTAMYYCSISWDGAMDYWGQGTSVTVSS
IPN002 of WO2014/028777A2 (antibody), sequence (VL): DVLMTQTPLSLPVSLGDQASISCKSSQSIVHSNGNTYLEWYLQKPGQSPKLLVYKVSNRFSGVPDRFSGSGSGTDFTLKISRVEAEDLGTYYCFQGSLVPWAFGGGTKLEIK

Row | Substance | Imax (maximal efficacy at 300 nM), cellular Tau aggregation assay [1] [%] | Imax (maximal efficacy at 300 nM), cellular Tau aggregation assay [2] [%] | Imax (maximal efficacy at 300 nM), cellular Tau aggregation assay [3] [%] | Imax (maximal efficacy at 300 nM), cellular Tau aggregation assay [4] [%] | IC50, cellular Tau aggregation assay [3] [nM] | IC50, cellular Tau aggregation assay [5] [nM] | Imax (maximal efficacy at 300 nM), cellular Tau aggregation assay [5] [%] | IC50, cellular Tau aggregation assay [4] [nM] | IC50, cellular Tau aggregation assay [1] [nM] | IC50, cellular Tau aggregation assay [2] [nM]
1 | AT8 (MN1020) (antibody) | 19 | 36 | 25 |  |  |  |  |  |  | 
2 | HJ8.5 of WO 2014/008404 (antibody) | 46 | 67 | 79 | 43 | 73 |  |  |  |  | 
3 | IPN002 of WO2014/028777A2 (antibody) | 19 | 50 | 64 | 22 | 207 | 122 | 73 |  |  | 
4 | PT3 of WO2013/096380A2 (antibody) | 69 | 80 | 55 | 56 | 47 | 26 | 69 | 350 | 32 | 1
